Holding throughout (experiment): purified protein
Substrate in data set [1]: Nc1nc2nn[nH]c2c(=O)[nH]1
The data set is classed as biochemical, Escherichia coli. As to conditions: 20 mM HEPES pH 7.5, 100 mM NaCl, 37 °C, zinc enzyme.

Substrate in data set [2]: Cn1c(N)nc2nc[nH]c2c1=O
In kind it is biochemical, Escherichia coli. As to conditions: 20 mM HEPES pH 7.5, 100 mM NaCl, 37 °C, zinc enzyme.

Substrate in data set [3]: Nc1nc(N)nc(O)n1
The data set is classed as biochemical, Escherichia coli. As to conditions: 20 mM HEPES pH 7.5, 100 mM NaCl, 37 °C, zinc enzyme.

Substrate in data set [4]: Nc1nc2nc[nH]c2c(=O)[nH]1
In kind it is biochemical, Escherichia coli. Particulars: 20 mM HEPES pH 7.5, 100 mM NaCl, 37 °C.

Substrate in data set [5]: Nc1nc2nc[nH]c2c(=O)[nH]1
In kind it is biochemical, Saccharomyces cerevisiae. Particulars: 20 mM HEPES pH 7.5, 100 mM NaCl, 37 °C, zinc enzyme.

Here are results for 5 proteins from paper PMC6677139.

Where a chain is given by its changes, count along the chain named. Names and notes keep the numbering of the source.

B1: EcGuaD (Escherichia coli K-12) (protein)
chain: MMSGEHTLKAVRGSFIDVTRTIDNPEEIASALRFIEDGLLLIKQGKVEWFGEWENGKHQIPDTIRVRDYRGKLIVPGFVDTHIHYPQSEMVGAYGEQLLEWLNKHTFPTERRYEDLEYAREMSAFFIKQLLRNGTTTALVFGTVHPQSVDALFEAASHINMRMIAGKVMMDRNAPDYLLDTAESSYHQSKELIERWHKNGRLLYAITPRFAPTSSPEQMAMAQRLKEEYPDTWVHTHLCENKDEIAWVKSLYPDHDGYLDVYHQYGLTGKNCVFAHCVHLEEKEWDRLSETKSSIAFCPTSNLYLGSGLFNLKKAWQKKVKVGMGTDIGAGTTFNMLQTLNEAYKVLQLQGYRLSAYEAFYLATLGGAKSLGLDDLIGNFLPGKEADFVVMEPTATPLQQLRYDNSVSLVDKLFVMMTLGDDRSIYRTYVDGRLVYERN
Consider B1, for which the Km is 1000 ± 300 µM in data set [1], 930 ± 260 µM in data set [2], 1200 ± 200 µM in data set [3] and 210 ± 40 µM in data set [4] (zinc enzyme).

B2: EcGuaD (Escherichia coli K-12; W101H) (protein)
chain: B1 chain with W101H
As to B2, in data set [4], the Michaelis constant (Km) turned out to be 80 ± 10 µM.

B3: EcGuaD (Escherichia coli K-12; A386S) (protein)
chain: B1 chain with A386S
With B3, the Km in data set [4] was determined as 140 ± 30 µM.

B4: EcGuaD (Escherichia coli K-12; F210A) (protein)
chain: B1 chain with F210A
In the case of B4, the Km in data set [4] came out at 210 ± 60 µM.

B5: Gud1 (Saccharomyces cerevisiae S288C) (protein)
chain: MTKSDLLFDKFNDKHGKFLVFFGTFVDTPKLGELRIREKTSVGVLNGIIRFVNRNSLDPVKDCLDHDSSLSPEDVTVVDIIGKDKTRNNSFYFPGFVDTHNHVSQYPNVGVFGNSTLLDWLEKYTFPIEAALANENIAREVYNKVISKTLSHGTTTVAYYNTIDLKSTKLLAQLSSLLGQRVLVGKVCMDTNGPEYYIEDTKTSFESTVKVVKYIRETICDPLVNPIVTPRFAPSCSRELMQQLSKLVKDENIHVQTHLSENKEEIQWVQDLFPECESYTDVYDKYGLLTEKTVLAHCIHLTDAEARVIKQRRCGISHCPISNSSLTSGECRVRWLLDQGIKVGLGTDVSAGHSCSILTTGRQAFAVSRHLAMRETDHAKLSVSECLFLATMGGAQVLRMDETLGTFDVGKQFDAQMIDTNAPGSNVDMFHWQLKEKDQMQEQEQEQGQDPYKNPPLLTNEDIIAKWFFNGDDRNTTKVWVAGQQVYQI
As to B5, the Km in data set [5] was found to be 61 ± 8 µM.

By Km is commonly meant the substrate concentration at which the rate is half of its maximum.
